Test in all cases: cell-based or functional assay
For assay [1], the target named is human glucagon-like peptide-1 (GLP-1) receptor (human, UniProt P43220 24-463).
For assay [2], the target named is human glucagon receptor (human, UniProt P47871 26-477).
The target in assay [3] is T1, human glucose-dependent insulinotropic polypeptide (GIP) receptor (human, UniProt P48546 22-466).
T1 sequence (looked up): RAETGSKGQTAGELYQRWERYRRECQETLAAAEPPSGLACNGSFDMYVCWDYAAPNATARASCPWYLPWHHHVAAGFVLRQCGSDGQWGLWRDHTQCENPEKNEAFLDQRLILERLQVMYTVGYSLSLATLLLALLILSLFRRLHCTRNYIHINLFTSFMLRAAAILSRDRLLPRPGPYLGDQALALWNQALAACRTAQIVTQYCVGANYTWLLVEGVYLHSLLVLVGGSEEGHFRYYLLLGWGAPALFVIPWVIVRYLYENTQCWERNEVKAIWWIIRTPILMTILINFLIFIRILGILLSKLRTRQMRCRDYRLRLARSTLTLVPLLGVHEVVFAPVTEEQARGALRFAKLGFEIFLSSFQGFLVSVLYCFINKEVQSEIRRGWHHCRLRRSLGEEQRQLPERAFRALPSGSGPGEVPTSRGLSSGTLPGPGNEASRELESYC

Assay [4] deals with T2, human GIP receptor (human, UniProt P48546 22-466).
T2 sequence (looked up): T1 sequence (looked up)

Assay [5] deals with human glucagon receptor (human, UniProt P47871 26-477). The source holds these as a separate data set.
Assay [6] concerns the target T3, human GIP receptor (human) (UniProt P48546).
T3 sequence (looked up): T1 sequence (looked up)

The target of assay [7] is hGLP-1R (Homo sapiens, UniProt P43220).
In assay [8] the target is human glucagon receptor (human) (UniProt P47871).
The target of assay [9] is T4, human GIP receptor (human, UniProt P48546 22-466).
T4 sequence (looked up): T1 sequence (looked up)
This is another data set of the same source.

Assay [10] has as its target human glucagon receptor (human, UniProt P47871 26-477). This is another data set of the same source.
Target sequence in this assay (P47871 26-477): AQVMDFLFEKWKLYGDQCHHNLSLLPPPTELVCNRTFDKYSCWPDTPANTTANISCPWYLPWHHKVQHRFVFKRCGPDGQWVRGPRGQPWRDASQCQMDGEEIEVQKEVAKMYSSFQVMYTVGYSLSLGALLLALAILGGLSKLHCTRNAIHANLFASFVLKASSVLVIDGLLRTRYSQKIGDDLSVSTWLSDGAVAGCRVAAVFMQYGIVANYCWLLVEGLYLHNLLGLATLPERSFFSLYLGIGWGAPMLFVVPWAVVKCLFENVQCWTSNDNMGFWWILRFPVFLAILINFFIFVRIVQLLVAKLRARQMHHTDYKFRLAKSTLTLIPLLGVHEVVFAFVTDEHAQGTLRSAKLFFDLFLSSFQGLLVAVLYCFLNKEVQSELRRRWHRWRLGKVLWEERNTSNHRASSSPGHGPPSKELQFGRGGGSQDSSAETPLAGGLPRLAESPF
For assay [11], the target named is human GLP-1 receptor (human, UniProt P43220 24-463).

The source of these data is patent publication US20230265151A1, “GIP/GLP1 CO-AGONIST COMPOUNDS” (priority 2020, published 2023).

Residue numbers refer to the chain shown, from its start.

B1: Example 200 (peptide)
peptide: YXEGTXTSDYXIXLDXKAQXEFIXXLIEGGKSSGAPPPS
modifications: Aib2, αMeF(2F)6, Dap11, αMeL13, Orn16, K17(Z), Aib20, D-Glu24, αMeY25, K31(Z), C-terminal NH2; Z = AEEA2-(γ-Glu)-CO-(CH2)12-CO2H
In the case of B1, the “cAMP EC50” value in assay [1] was 0.834 nM; in assay [2], > 9950 nM; in assay [3], 0.0503 nM. The “cAMP Emax” value in assay [1] came out at 93.7%; in assay [3] it was 96.3%.

B2: Y-Aib-EGT-αMeF(2F)-TSD-1Nal-SI-αMeL-LD-Orn-K((2-[2-(2-Amino-ethoxy)-ethoxy]-acetyl)2-(γ-Glu)-CO-(CH2)12-CO2H)AQ-Aib-EFI-(D-Glu)-αMeY-LIEGGK((2-[2-(2-Amino-ethox … (peptide)
peptide: B1 peptide with Y10X, X11S
modifications: Aib2, αMeF(2F)6, 1Nal10, αMeL13, Orn16, Aib20, D-Glu24, αMeY25; acylated K17, K31 (groups as in name); C-terminal amide
B2: the “cAMP EC50 (1.0% HSA)” value is 6.75 nM in [4] and > 9950 nM in [5].

B3: Y-Aib-EGT-αMeF(2F)-TSD-4Pal-SI-αMeL-LD-Orn-IAQ-Aib-EFIK((εK)-(εK)-(γ-Glu)-CO-(CH2)12-CO2H)-αMeY-LIEGGK((εK)-(εK)-(γ-Glu)-CO-(CH2)12-CO2H)SSGAPPPS-NH2 (peptide)
peptide: B1 peptide with Y10X, X11S, K17I, X24K
modifications: Aib2, αMeF(2F)6, 4Pal10, αMeL13, Orn16, Aib20, αMeY25; acylated K24, K31 (groups as in name); C-terminal amide
For the molecule B3, the results for the “cAMP EC50 (1.0% HSA)” value in assay [4] and in assay [5] were 1.06 nM and > 9950 nM, respectively.

B4: Y-Aib-EGT-αMeF(2F)-TSD-4Pal-SI-αMeL-LD-Orn-IAQ-Aib-EFIK((2-[2-(2-Amino-ethoxy)-ethoxy]-acetyl)2-(γ-Glu)-CO-(CH2)12-CO2H)-αMeY-LIEGGK((2-[2-(2-Amino-ethoxy)-etho … (peptide)
peptide: B1 peptide with Y10X, X11S, K17I, X24K
modifications: Aib2, αMeF(2F)6, 4Pal10, αMeL13, Orn16, Aib20, αMeY25; acylated K24, K31 (groups as in name); C-terminal amide
Take B4: the “cAMP EC50 (1.0% HSA)” value in assay [4] was 3.07 nM; in assay [5], > 9950 nM.

B5: Y-Aib-EGT-αMeF-TSD-4Pal-SI-αMeL-LD-Orn-K((2-[2-(2-Amino-ethoxy)-ethoxy]-acetyl)2-(γ-Glu)-CO-(CH2)12-CO2H)AQ-Aib-E-αMeF-I-(D-Glu)-αMeY-LIEGGK((2-[2-(2-Amino-etho … (peptide)
peptide: B1 peptide with Y10X, X11S, F22X
modifications: Aib2, αMeF6, 4Pal10, αMeL13, Orn16, Aib20, αMeF22, D-Glu24, αMeY25; acylated K17, K31 (groups as in name); C-terminal amide
In the case of B5, the entries for the “cAMP EC50 (1.0% HSA)” value in assay [4] and in assay [5] were 0.777 nM and > 9950 nM, respectively.

B6: Y-Aib-EGT-αMeF(2F)-TSD-4Pal-SI-αMeL-LD-Orn-IAQ-Aib-EFIK((2-[2-(2-Amino-ethoxy)-ethoxy]-acetyl)2-CO-(CH2)12-CO2H)-αMeY-LIEGGK((2-[2-(2-Amino-ethoxy)-ethoxy]-acet … (peptide)
peptide: B1 peptide with Y10X, X11S, K17I, X24K
modifications: Aib2, αMeF(2F)6, 4Pal10, αMeL13, Orn16, Aib20, αMeY25; acylated K24, K31 (groups as in name); C-terminal amide
For the molecule B6, the “cAMP EC50 (1.0% HSA)” value in [4] is 1.47 nM; in [5], > 9950 nM.

B7: Y-Aib-EGT-αMeF(2F)-TSD-4Pal-SI-αMeL-LD-Orn-IAQ-Aib-EFIK((εK)-(γ-Glu)-CO-(CH2)12-CO2H)-αMeY-LIEGGK((εK)-(γ-Glu)-CO-(CH2)12-CO2H)SSGAPPPS-NH2 (peptide)
peptide: B1 peptide with Y10X, X11S, K17I, X24K
modifications: Aib2, αMeF(2F)6, 4Pal10, αMeL13, Orn16, Aib20, αMeY25; acylated K24, K31 (groups as in name); C-terminal amide
For the molecule B7, the “cAMP EC50 (1.0% HSA)” value was 2.06 nM in [4] and > 9950 nM in [5].

B8: Y-Aib-EGT-αMeF-TSD-4Pal-SI-αMeL-LD-Orn-K((2-[2-(2-Amino-ethoxy)-ethoxy]-acetyl)2-(γ-Glu)-CO-(CH2)10-CH3)AQ-Aib-E-αMeF-I-(D-Glu)-αMeY-LIEGGK((2-[2-(2-Amino-ethox … (peptide)
peptide: B1 peptide with Y10X, X11S, F22X
modifications: Aib2, αMeF6, 4Pal10, αMeL13, Orn16, Aib20, αMeF22, D-Glu24, αMeY25; acylated K17, K31 (groups as in name); C-terminal amide
In the case of B8, the results for the “cAMP EC50 (1.0% HSA)” value in [4] and in [5] were 1.24 nM and > 9950 nM, respectively.

B9: Example 488 (peptide)
peptide: YXEGTXTSDXXIXLDXQAQXKFIXXLIKGGPSSGAPPPS
modifications: Y-Aib-EGT-αMeF(2F)-TSD-4Pal-Aib-I-αMeL-LD-Orn-QAQ-Aib-K((2-[2-(2-Amino-ethoxy)-ethoxy]-acetyl)2-(γ-Glu)-CO-(CH2)12-CO2H)FI-(D-Glu)-αMeY-LIK((2-[2-(2-Amino-ethoxy)-ethoxy]-acetyl)2-(γ-Glu)-CO-(CH2)12-CO2H)GGPSSGAPPPS-NH2
Regarding B9, the figures for the cAMP EC50 in [6], in [7] and in assay [8] were 0.0115 nM, 0.207 nM and > 10100 nM, respectively. Moreover, the cAMP Emax in [6] was determined as 104%; in assay [7], 113%. The figures for the “cAMP EC50 (1.0% HSA)” value in [9], in [10] and in assay [11] were 0.718 nM, > 9950 nM and 13 nM, respectively. Further, the “cAMP Emax (1.0% HSA)” value in [9] was determined as 85.5%.

B10: Example 222 (peptide)
peptide: B9 peptide with X11S, Q17I
modifications: Aib2, αMeF(2F)6, 4Pal10, αMeL13, Orn16, Aib20, K21(Z), D-Glu24, αMeY25, K28(Z), C-terminal NH2; Z = AEEA2-CO-(CH2)12-CO2H
As for B10, the “cAMP EC50” value in assay [1] is 0.518 nM; in assay [2], > 9950 nM; in [3], 0.0195 nM.

B11: Example 211 (peptide)
peptide: B1 peptide with Y10X
modifications: Aib2, αMeF(2F)6, 4Pal10, Ac5c11, αMeL13, Orn16, K17(Z), Aib20, D-Glu24, αMeY25, K31(Z), C-terminal NH2; Z = AEEA2-(γ-Glu)-CO-(CH2)12-CO2H
On to B11, for which the “cAMP EC50” value in assay [1] was 3.55 nM; in assay [2] it was > 9950 nM; in assay [3], 0.0465 nM. Moreover, the “cAMP Emax” value came to 93.1% in assay [1] and 91.6% in [3].

B12: Y-Aib-EGT-αMeF(2F)-TSD-4Pal-SI-αMeL-LD-Orn-IAQ-Aib-K((2-[2-(2-Amino-ethoxy)-ethoxy]-acetyl)2-(γ-Glu)-CO-(CH2)12-CO2H)FI-(D-Glu)-αMeY-LIEGGK((2-[2-(2-Amino-ethox … (peptide)
peptide: B9 peptide with X11S, Q17I, K28E, P31K
modifications: Aib2, αMeF(2F)6, 4Pal10, αMeL13, Orn16, Aib20, D-Glu24, αMeY25; acylated K21, K31 (groups as in name); C-terminal amide
For the molecule B12, the “cAMP EC50 (1.0% HSA)” value in assay [4] was 2.19 nM; in assay [5], > 9950 nM.

B13: Example 214 (peptide)
peptide: B1 peptide with Y10X, X24K, K31P
modifications: Aib2, αMeF(2F)6, 4Pal10, αMeS11, αMeL13, Orn16, K17(Z), Aib20, K24(Z), αMeY25, C-terminal NH2; Z = AEEA2-(γ-Glu)-CO-(CH2)12-CO2H
As for B13, the “cAMP EC50” value was 0.618 nM in assay [1], > 9950 nM in assay [2] and 0.0351 nM in assay [3]. For the same molecule, the “cAMP Emax” value in [1] was determined as 93.2%; in [3], 93.7%.

B14: Example 207 (peptide)
peptide: B9 peptide with X11S, Q17K, K28E
modifications: Aib2, αMeF(2F)6, 4Pal10, αMeL13, Orn16, K17(Z), Aib20, K21(Z), D-Glu24, αMeY25, C-terminal NH2; Z = AEEA-(γ-Glu)-(4-(4-tert-butylphenyl)butanoyl)
As for B14, the figures for the “cAMP EC50” value in assay [1], in assay [2] and in assay [3] were 0.209 nM, > 9950 nM and 0.019 nM, respectively.

B15: Y-Aib-EGT-αMeF(2F)-TSD-4Pal-SI-αMeL-LD-Orn-IAQ-Aib-EFIK((2-[2-(2-Amino-ethoxy)-ethoxy]-acetyl)2-CO-(CH2)12-CO2H)-αMeY-LIK((2-[2-(2-Amino-ethoxy)-ethoxy]-acetyl) … (peptide)
peptide: B9 peptide with X11S, Q17I, K21E, X24K
modifications: Aib2, αMeF(2F)6, 4Pal10, αMeL13, Orn16, Aib20, αMeY25; acylated K24, K28 (groups as in name); C-terminal amide
B15: the “cAMP EC50 (1.0% HSA)” value in assay [4] was 0.832 nM; in assay [5], > 9950 nM.
